The nanobody polyreactivity screen of Harvey et al. (2022)

Assay: yeast display, Sf9 membrane polyspecificity reagent, FACS + sequencing; frameworks hold sequencing errors
Procedure, shortened: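 After 36–48 hours of galactose induction, yeast (Saccharomyces cerevisiae BJ5465) displaying a synthetic nanobody library were stained at 4 °C for 1 hour with 10% biotinylated, detergent-solubilized Sf9 membrane reagent. Streptavidin microbeads enriched the stained cells before FACS sorting into low and high (top ~1%) gates on anti-HA and streptavidin fluorescence. Each clone's polyreactivity label reflects its gate of origin.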

| Sequence | polyreactivity (PSR sort gate) |
| --- | --- |
| QFQLVESGGGLVQAGGSLRLSCAASGFIFQEYAMGWYGQAPGKERELVAAITSGGSTNYADSVKGRFTISRDNAKNTVYLQMNSLKPEDTAVYYCNVDSPDYYYDYDYWGHGTQVTVSS | low polyreactivity |
| QFQLVESGGGLVQAGGSLRLSCAASGFIFRYNAMGWYRQAPGKERELVAAIDSGGSTYYADSVKGRFTISRDNAKNTVDLQMNSLKPEDTAVYYCYAVHEASYSGVDYWGQGTQVTVSS | low polyreactivity |
| QFQLVESGGGLVQAGGSLRLSCAASGFTFAVYAMGWYRQAPWKERELVAAISRSGTRTYYADSVKGRFTISRDNAKNTVYLQMNSLKPVDTAVYYCAADKYRHGYDYWGQGTQVTVSS | low polyreactivity |
| QFQLVESGGGLVQAGGSLRLSCAASGGIFDTNAMGWYRQATGKDRELVAAITVRGGSTYYADSVKGRFTISRDNAKNTVYLQMNSLKPEDTAVYYCATRSPKRAAVRYNYWGQGTQVTVSS | high polyreactivity |
| QFQLVESGGGLVQAGGSLRLSCAASGGIFYTYAMGWYRQAPAKERAFVAAISRSGGRTRYADSVKGRFTISRDNAKNTVYLQMNSLKQEDTAVYYCAARVIGAGLLKYDKWGQGTQVTVSS | high polyreactivity |
| QFQLVESGGGLVQAGGSLRLSCAASGGTFPYNAMGWYRQAPGKERELVAAISSSGTSTYYADSVKGRFTISRDNAKNTVYLQMNSLKPEDTAVYYCNDYFKRYDYWGQGTQVTVSS | high polyreactivity |
| QFQLVESGGGLVQAGGSLRLSCAASGGTFYVNDMGWYRQAPGKERELVATITYSGTSTYYADSVKGRFTISRDNAKNTVYLQMNSLKPEDTAVYYCATDVLLYFEPVNLDYWGQGTQVTVSS | low polyreactivity |
| QFQLVESGGGLVQAGGSLRLSCAASGIIFLENAMGWYRQAPGKEREFVAAISRSGGITYYADSVKGRFTISRDNAKNTVYLQMNSLKPEDTAVYYCAAVGRDRYRHSPQPLYDYWGQGTQVTVSS | low polyreactivity |
| QFQLVESGGGLVQAGGSLRLSCAASGITFSNYALGWYRQAPGKERELVAAISKRGGSTYYADSVKGRFTISRDNAKTTVDLQMNSLKPEDTAVYYCAADAYNPPYWVDPYDYWGQGTQVTVSS | high polyreactivity |
| QFQLVESGGGLVQAGGSLRLSCAASGLIFRRYAMGWYRQAPGKEREFVAAISWSGGSTYYADSVKGRFTISRDNAKNSVYLQINSLKPEDTGVSYFAAYDKSLYGSGYDYWGQGTQVTVSP | high polyreactivity |
| QFQLVESGGGLVQAGGSLRLSCAASGLIFVINAMGWYRQAPGKERELDATISSGVSTNYADSVKGRFTISRDNAKNTVYLQMNSLKPEDTAVYYCNKDGVVEVRFTVRQEYDYWGQGTQVTVSS | low polyreactivity |
| QFQLVESGGGLVQAGGSLRLSCAASGLTFSWYVMGWYRQAPGKERELVAAITNGGNTNYADSVKGRFTISRDNAKNTVYLQMNCLKPEDTAVYYCAARDPYTWPRSGSGYYEFDYWVQGTQVTVSS | low polyreactivity |
| QFQLVESGGGLVQAGGSLRLSCAASGNTFYGYARGWYRQAPGKDRELVATMTGSGGDTYYADSVKGRFTISRDNANYTVYLPMNSLKPEDTAVYYCNAVEYYGGYPGTDYSYLAYNYWGQGTKVTVSS | low polyreactivity |
| QFQLVESGGGLVQAGGSLRLSCAASGRIFGIYAMGWDRQAPGKESELVATITDSDDSTYYADSVKGRFTISRDNAKNTVYLQMNSLKPEDTAVYYCATAFSYGGGAYDYWGQGTQVTVSS | low polyreactivity |
| QFQLVESGGGLVQAGGSLRLSCAASGRIFGRYSRGLYRQAPGKERELVAAITWLGTTYYADSVKGRFTISRDNAKNTVYLQMNSLKPEDTAVYYCATVVLLRIWGGYWGQGTQVTVSS | high polyreactivity |
| QFQLVESGGGLVQAGGSLRLSCAASGRIFGVNAMGWYRPAPGKERELVAAISYRGGHTYADSVKGRFTISRDNAKNTVYLQMNSLKPEDTAVYYCAARNRSSTGLGSRYGYWGQGTQVTVSS | high polyreactivity |
| QFQLVESGGGLVQAGGSLRLSCAASGRIFPGYAMGWYRQAPGKERELVAAISERGGSTYYADSVKGRFTISRDHAKNTVYLQMNSLKPEDTAVYYCAAIWRGGYNYWGQGTQVTVSS | low polyreactivity |
| QFQLVESGGGLVQAGGSLRLSCAASGRIFPQYAMGWSRQATGKERELVAGITSVGSTYYADSVKGRFTISRDNAKNTVYLQMNSLKPEDTAVYYCAAFYRGGDYWGQGTQVTVSS | high polyreactivity |
| QFQLVESGGGLVQAGGSLRLSCAASGRIFRGNAMGWYRQAPGKERELVAAILTGVSTYYADSVKGRFTISRDNAKNTVYLQMNSLKPEDTAVYYCAAERPSRRSGYEYWGQGTQVTVSS | low polyreactivity |
| QFQLVESGGGLVQAGGSLRLSCAASGRIFYSNAMGWYRQAPGKERELVAAISSSGGITYYADSVKGRFTISRDNAKNTVNLQMNSLKPEDSAVYYCAVDSRHYIRAFDHWGQGTQVTVSS | low polyreactivity |
| QFQLVESGGGLVQAGGSLRLSCAASGRTFIYYSMGWYRQAPGKERELVAAITRSGGSTNYADSVKGRFTISRDNSKNTVYIQMNSLKPEDTAVYYCAARFYGRRCIYGYWGQGTQVTVSS | high polyreactivity |

| Sequence | polyreactivity (PSR sort gate) |
| --- | --- |
| QFQLVESGGGLVQAGGSLRLSCAASGRTFQHNVMGWYIQAPGKERELVASITCRGGSTYYADSVKGRFTISRDNAKNTVYLQMNSLKPEDTAVYYCAARNGFRRVRFDYWGQGTQVTVSS | low polyreactivity |
| QFQLVESGGGLVQAGGSLRLSCAASGRTFTYNAMGWYRQAPGKERELVAAINSGGSTNYADSVKGRFTISRDNAKNTVYLQMNSLKPEDTAVYYCNAGFGFGSSRYGTRYYYWGQGTQVTVSS | low polyreactivity |
| QFQLVESGGGLVQAGGSLRLSCAASGRTFVYYVMGWYRPAPGKERELVAAISRRGGSTYYADSVKGRFTISRDNAKNTVYLQMNSLKPEDTAVYYCAAQYYYAREDYWGQGTQVTVSS | high polyreactivity |
| QFQLVESGGGLVQAGGSLRLSCAASGSIFDSYYMGWYRQAPGKEREMVAAITSGGSTNYADSVKGRFTISRDNAKNTVYLQMNSLKPEDTAVYYCAAYYWYPVYYGYEYWGQGTQVTVSS | low polyreactivity |
| QFQLVESGGGLVQAGGSLRLSCAASGSIFHPYTMGWYRPAPGKERELVAAISWSGGNTNYADSVKGRFTISRDNAKNTVYLQMNSLKPEDTAVYYCNKATNLSGGYDSWGQGTQVTVSS | low polyreactivity |
| QFQLVESGGGLVQAGGSLRLSCAASGSIFKYYTMGRYRQAHGKEMELVAYISSGGSTKYADSVKGRFTISRDNAKNTVYLQMNSLKPEDTAVYYCAKRYYYFYPDYDYWGQGTQVTVSS | high polyreactivity |
| QFQLVESGGGLVQAGGSLRLSCAASGSIFPGYAMGWYRQAPGKERELVAAITVSGVSTYYADSVKGRFTISRDNEKNTVYLQMNSLKPEDTAVYYCARDNWQLYPSTWYDYWGQGTQVNVSS | high polyreactivity |
| QFQLVESGGGLVQAGGSLRLSCAASGSIFYGYAMGWYRQAPGKERELVARITGSGGDTSYADSVKGRFTISRDNAKNTVYLQMNSLKPEDTAVYYCNTDLYITYTLYTGSEYDYWGQGTQVTVSS | low polyreactivity |
| QFQLVESGGGLVQAGGSLRLSCAASGSIFYTYTMGWYRQAPGKDRVLVAAISFSDGDTYYADSVKGRFTISRDNAKNTVYLQMNSLKPEDTAVYYSNAYVYLPNYPYDYWGQGTQVTVSS | low polyreactivity |
| QFQLVESGGGLVQAGGSLRLSCAASGSIITPYAMGWYRPAPGKERELVAAISGRGGSTYYADSVKGRFTISRDNAKNTVYLQMNSLKPEDTAVYYCAARQYFRWYGWSMDYWGQGTQVTVSS | high polyreactivity |
| QFQLVESGGGLVQAGGSLRLSCAASGSTFDTYAMGWYRQAPGKERDLFAAISGSGVRTYYADSVKGRFTISRDNAKNTVYLQMNSLKPEDTAVYYSAAAGSGYGGKQFDHGFNYWGQGTQVTVSS | high polyreactivity |
| QFQLVESGGGLVQAGGSLRLSCAASGSTFPRYAMGWYRPAPGKERELVAAISRSGTSTYYADSVKGRFTISRDNAKNTVYLQMNSLKPEDTAVYYCAAEYHPRVLYPNWYDYWGQGTQVTVSS | low polyreactivity |
| QFQLVESGGGLVQAGGSLRLSCAASGSTFRHNAMGWYRQASGKEREWVATIRTSGGTTYYADSVKGRFTISRDNAKNTVYLQMNSLKPEDTAFYYCAKDALFIDGGGGYDYWGQGTQVTVSS | low polyreactivity |
| QFQLVESGGGLVQAGGSLRLSCAASGSTLELNAMGWYIQAPGKERELVAAITSSGGRTYYADSVKGRFTISRDNAKNTVYLQMNSLKPEDTAVYYCAAEPGQHRVVDRYDYWGQGTQVTVSS | low polyreactivity |
| QFQLVESGGGLVQAGGSLRLSCAASGVIFEWYTMGWYRQAPGKERELVARISSDGSTTYADSVKGRFTLSRDNAKNTVYFEMNSLKREDTAVYYCAADVSYPGLKYIFDYWGQGTLVTVSS | low polyreactivity |
| QFQLVESGGGLVQAGGSLRLSCAASGYIFLRNAMGCYRQAHGKERELVAAIRLTGGSTYYADSVKGRFTISRDNAKNTVYLQMNSLKPEDTAVYYCAKRSYTGYEYWGQGTQVTVSS | low polyreactivity |
| QFQLVESGGGLVQAGGSLRLSCAASVSTVVIYDMGWYRQAPGKERELVAAISYSGGSTYYADSVKGRFTITRDNAKNTVYLQMNSLKPEDTAVYYCNAGVLVLLYAYLPSDLEYWGQGTQVTVSS | low polyreactivity |
| QFQLVESGGGLVQAGGSLRLSCAPSGSTFVSYSMAWYRQEPGKERQFVAAITWSGGSTYYADSVKGRFTISRDNANNTVYLQMNSLKPEDTAVYYCARPYRGSPRYYYWGQGTQVTLSS | high polyreactivity |
| QFQLVESGGGLVQAGGSLRLSCDASGSIFSYYAMGWYRQAPGKERELVAAISQSGGTTYYADSLKGRFTISRDNEKNTVYLQMNSLKPEDTAVYYCAARAQSSFDTQYYYWGQGTQVTVSS | low polyreactivity |
| QFQLVESGGGLVQAGGSLRLSCSASGSIFVSNAMGRSRQAPGKERELVAAISSSGDSTYYADSVKGRFTISRDNAKNTFYVQMNSLKPEDNAVYYCAAVGPWWFPEYDYWGQGTQVTVSS | low polyreactivity |
